8 molecules from publication PMC12572374, “Regulation of ADP-ribosyltransferase activity by ART domain dimerization in PARP15” (Nature Communications, 2025) can be followed below.

Data set [1] addresses T1, PARP15 (Homo sapiens, UniProt Q460N3, R576D).
T1 construct: ART domain, Asn481-Ala678
T1 sequence (Q460N3 481-678 R576D): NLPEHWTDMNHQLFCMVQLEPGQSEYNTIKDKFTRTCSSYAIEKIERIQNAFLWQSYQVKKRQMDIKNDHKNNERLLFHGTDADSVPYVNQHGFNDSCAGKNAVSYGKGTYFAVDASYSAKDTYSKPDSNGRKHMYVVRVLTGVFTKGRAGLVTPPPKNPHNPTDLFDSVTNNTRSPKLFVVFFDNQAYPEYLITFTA
The data set is described as follows: nanoDSF thermal shift at […] ligand. It counts as binding. For orientation: In DSF a fluorescence change marks the thermal transition of the protein.

Data set [2] deals with T2, PARP15 (Homo sapiens, UniProt Q460N3, R576E).
T2 construct: ART domain, Asn481-Ala678
T2 sequence (Q460N3 481-678 R576E): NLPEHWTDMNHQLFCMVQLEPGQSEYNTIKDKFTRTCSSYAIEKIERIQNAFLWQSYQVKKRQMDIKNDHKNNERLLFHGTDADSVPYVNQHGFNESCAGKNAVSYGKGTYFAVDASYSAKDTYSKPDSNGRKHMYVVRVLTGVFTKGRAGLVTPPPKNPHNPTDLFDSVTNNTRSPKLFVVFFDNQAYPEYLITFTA
Put plainly: X-ray crystal structure; also nanoDSF thermal shift. The data set is classed as binding.

The target of another data set is T3, PARP10 (Homo sapiens, UniProt Q53GL7).
T3 construct: ART domain, Asn819-Val1007
T3 sequence (Q53GL7 819-1007): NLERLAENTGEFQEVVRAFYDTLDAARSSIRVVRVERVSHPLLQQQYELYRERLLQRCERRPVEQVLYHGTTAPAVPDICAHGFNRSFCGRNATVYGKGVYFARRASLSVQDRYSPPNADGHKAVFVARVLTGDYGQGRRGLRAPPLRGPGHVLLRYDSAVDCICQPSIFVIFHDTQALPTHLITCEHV
Put plainly: auto-MARylation assay with purified enzyme (MacroGreen overlay). It counts as biochemical.

For data set [3], the target named is T2, PARP15. The data set is described as follows: ITC; also HDX-MS. The data set is classed as binding. In general terms: Isothermal titration calorimetry measures the heat released or taken up as one component is titrated into another.
Data set [4] concerns the target T4, PARP15 (Homo sapiens, UniProt Q460N3).
T4 construct: ART domain, Asn481-Ala678
T4 sequence (Q460N3 481-678): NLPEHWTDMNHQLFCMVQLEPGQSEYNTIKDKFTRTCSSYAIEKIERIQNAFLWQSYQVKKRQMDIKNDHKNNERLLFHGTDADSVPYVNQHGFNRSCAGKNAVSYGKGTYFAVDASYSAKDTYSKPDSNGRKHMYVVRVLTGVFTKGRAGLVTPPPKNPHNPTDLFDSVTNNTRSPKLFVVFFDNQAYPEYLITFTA
Put plainly: ITC; also HDX-MS. The data set is classed as binding.

In data set [5] the target is T5, human PARP15 ART domain (Asn481-Ala678), wild type (human) (UniProt Q460N3).
T5 sequence: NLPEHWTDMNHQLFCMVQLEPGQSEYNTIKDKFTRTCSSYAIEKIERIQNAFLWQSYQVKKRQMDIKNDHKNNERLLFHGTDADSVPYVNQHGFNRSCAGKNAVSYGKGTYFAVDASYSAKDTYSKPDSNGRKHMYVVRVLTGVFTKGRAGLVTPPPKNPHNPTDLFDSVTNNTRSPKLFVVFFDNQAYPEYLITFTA

Data set [6] concerns the molecule itself. The data set is described as follows: AUC; sedimentation velocity, 0.5 µM PARP15 ART, 58,000 rpm, measured at 220 nm; Discrete Model Genetic Algorithm fit, 100 Monte Carlo iterations; no NAD+ treatment; dimer to monomers.
Data set [7] deals with the molecule itself. Put plainly: AUC; sedimentation velocity at 0.5 µM ART domain, 58,000 rpm for 5 h, measured at 220 nm, no NAD+; discrete model genetic algorithm (DMGA) analysis; dimer to monomers.
Data set [8] concerns the molecule itself. The data set is described as follows: SEC-MALS; SEC-RALS/LALS (OMNISEC), Superdex 200 Increase 10/300 GL; 120 µl at 0.75 mg/ml PARP15 constructs, 0.35 mg/ml PARP14 ART, 0.65 mg/ml PARP10 ART; 50 mM HEPES pH 7.5, 300 mM NaCl, 1 mM TCEP.
Data set [9] deals with the molecule itself. Put plainly: AUC; sedimentation velocity at 9 µM protein, auto-MARylated and unmodified ART; 20 mM sodium phosphate pH 7, 150 mM NaCl; van Holde-Weischet analysis.
Data set [10] concerns the molecule itself. The data set is described as follows: HDX-MS; 2 mg/ml m2-ART in 50 mM TBS pH 7.4, labelling 0-9000 s at 20 °C.

Turning to `NC(=O)c1cccc(N)c1` [3-aminobenzamide], the “nanoDSF thermal shift at 1 mM ligand” value on PARP15 [1] was “thermal stabilities and ligand-induced Tm-shifts indicated they were properly folded”. For the same molecule, the “X-ray crystal structure; also nanoDSF thermal shift” value at PARP15 [2] is recorded as “we crystallized the monomeric R576E mutant in complex with the nicotinamide analog 3-aminobenzamide (3AB)”.
`NC(=O)c1ccc[n+]([C@@H]2O[C@H](COP(=O)([O-])OP(=O)(O)OC[C@H]3O[C@@H](n4cnc5c(N)ncnc54)[C@H](O)[C@@H]3O)[C@@H](O)[C@H]2O)c1` [NAD+]: the “auto-MARylation assay with purified enzyme (MacroGreen overlay)” value at PARP10 is given as “PARP10 ART domain auto-modification increased in a roughly linear fashion over the entire concentration range”.
As to `Nc1ncnc2c1ncn2[C@@H]1O[C@H](C(=O)N2CCN(CC(=O)Nc3cccc4c3CNC4=O)CC2)[C@@H](O)[C@H]1O` [EB-47], the Kd on PARP15 [3] amounted to 47 µM; at PARP15 [4] it was 24 µM.

B1: PARP15 ART domain (Asn481-Ala678) H559Y, catalytically inactive (domain or fragment)
chain: NLPEHWTDMNHQLFCMVQLEPGQSEYNTIKDKFTRTCSSYAIEKIERIQNAFLWQSYQVKKRQMDIKNDHKNNERLLFYGTDADSVPYVNQHGFNRSCAGKNAVSYGKGTYFAVDASYSAKDTYSKPDSNGRKHMYVVRVLTGVFTKGRAGLVTPPPKNPHNPTDLFDSVTNNTRSPKLFVVFFDNQAYPEYLITFTA
Regarding B1, the MARylation of plate-bound PARP15 macrodomain-2 by 250 nM wild-type ART with increasing H559Y (2-fold dilution series from 2 µM), MacroGreen overlay in [5] came out at 500 nM.

B2: human PARP15 ART domain (Asn481-Ala678), wild type (domain or fragment, UniProt Q460N3 481-678, looked up)
chain: NLPEHWTDMNHQLFCMVQLEPGQSEYNTIKDKFTRTCSSYAIEKIERIQNAFLWQSYQVKKRQMDIKNDHKNNERLLFHGTDADSVPYVNQHGFNRSCAGKNAVSYGKGTYFAVDASYSAKDTYSKPDSNGRKHMYVVRVLTGVFTKGRAGLVTPPPKNPHNPTDLFDSVTNNTRSPKLFVVFFDNQAYPEYLITFTA
notes: PARP15 (protein mono-ADP-ribosyltransferase PARP15), human, ART domain, residues Asn481-Ala678 of the canonical isoform (isoform 1); No tag cleavage is described; not copied; also called PARP15 ART WT; WT PARP15; source: E. coli BL21(DE3), purified (TALON IMAC, Superdex 75 SEC)
Molecule B2 displayed a Kd in [6] of 0.313 µM. In other words, the sub-micromolar range.

B3: human PARP15 ART domain (Asn481-Ala678), wild type (domain or fragment, UniProt Q460N3 481-678, looked up)
chain: NLPEHWTDMNHQLFCMVQLEPGQSEYNTIKDKFTRTCSSYAIEKIERIQNAFLWQSYQVKKRQMDIKNDHKNNERLLFHGTDADSVPYVNQHGFNRSCAGKNAVSYGKGTYFAVDASYSAKDTYSKPDSNGRKHMYVVRVLTGVFTKGRAGLVTPPPKNPHNPTDLFDSVTNNTRSPKLFVVFFDNQAYPEYLITFTA
notes: PARP15, human, ADP-ribosyltransferase (ART) domain, residues Asn481-Ala678; numbers count on the canonical isoform (isoform 1); cDNA in pNIC-Bsa4 (GenBank EF198106 is the vector); also called PARP15 ART WT; WT PARP15; source: E. coli BL21(DE3), purified (HiTrap TALON, Superdex 75 SEC)
The molecule B3 had a Kd in data set [7] of 0.313 µM. For the same molecule, in data set [8], the “stoichiometry N” value was 2.

B4: auto-MARylated PARP15 ART domain (Asn481-Ala678) (domain or fragment, human, UniProt Q460N3 481-678, looked up)
chain: NLPEHWTDMNHQLFCMVQLEPGQSEYNTIKDKFTRTCSSYAIEKIERIQNAFLWQSYQVKKRQMDIKNDHKNNERLLFHGTDADSVPYVNQHGFNRSCAGKNAVSYGKGTYFAVDASYSAKDTYSKPDSNGRKHMYVVRVLTGVFTKGRAGLVTPPPKNPHNPTDLFDSVTNNTRSPKLFVVFFDNQAYPEYLITFTA
modifications: mono-ADP-ribosylated by auto-modification with NAD+; sites not stated
notes: PARP15, human, ART domain, residues Asn481-Ala678 of the canonical isoform; same construct as m1 after auto-MARylation; source: E. coli BL21(DE3), purified; 40 µM incubated with 100 µM NAD+ for 1 h, NAD+ removed on a desalting column
Turning to B4, the binding result in data set [9] is reported as “binds”.

B5: PARP15 macrodomain-2 + ART domain construct (m2-ART; Gly287-Ala678) (domain or fragment, human, UniProt Q460N3 287-678, looked up)
chain: GTVSKPCFTAYEMKIGAITFQVATGDIATEQVDVIVNSTARTFNRKSGVSRAILEGAGQAVESECAVLAAQPHRDFIITPGGCLKCKIIIHVPGGKDVRKTVTSVLEECEQRKYTSVSLPAIGTGNAGKNPITVADNIIDAIVDFSSQHSTPSLKTVKVVIFQPELLNIFYDSMKKRDLSASLNFQSTFSMTTCNLPEHWTDMNHQLFCMVQLEPGQSEYNTIKDKFTRTCSSYAIEKIERIQNAFLWQSYQVKKRQMDIKNDHKNNERLLFHGTDADSVPYVNQHGFNRSCAGKNAVSYGKGTYFAVDASYSAKDTYSKPDSNGRKHMYVVRVLTGVFTKGRAGLVTPPPKNPHNPTDLFDSVTNNTRSPKLFVVFFDNQAYPEYLITFTA
notes: PARP15, human, macrodomain-2 and ART domain, residues Gly287-Ala678 of the canonical isoform (isoform 1); synthetic gene, codon optimised for E. coli, in pET151/TOPO; also called PARP15 m2-ART; PARP15 isoform-2 (m2-ART); source: E. coli BL21(DE3), purified (HiTrap TALON, Superdex 200 SEC, HiTrap SP XL cation exchange)
Regarding B5, the binding result in data set [10] is listed as “binds”.

Broadly, the Kd is the free concentration of one partner at which half of the binding sites on the other are occupied at equilibrium, for simple one-to-one binding. A high value points to weaker binding. As a reminder, the stoichiometry N is the number of molecules, sites or subunits per partner or assembly.
